Consider 30 sequences from the nanobody polyreactivity screen of Harvey et al. (2022).

The data set in a line: yeast display, Sf9 membrane polyspecificity reagent, FACS + sequencing; frameworks hold sequencing errors. The method in brief:
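Nanobodies came from a synthetic yeast display library in Saccharomyces cerevisiae BJ5465, induced with galactose for 36–48 hours and stained for 1 hour at 4 °C with 10% biotinylated, detergent-solubilized Sf9 membrane reagent. Cells were enriched on streptavidin microbeads and then FACS-sorted, with low and high (top ~1%) gates set on anti-HA fluorescence for expression and streptavidin fluorescence for reagent binding. Each polyreactivity label reflects the gate a clone came from. Genes were amplified by colony PCR, sequenced by MiSeq 2 × 250 and filtered by CDR length.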
Consider “QVQHVESGGGLVQAGGSLRLSGAASGRTFYKNTMGWSRQAPGKERELVAGISQRGGRTYYADSVKGRFTISRDYAKNTVYLQMNSLNPEDTAVYYCAVRSYVHGFDYWGQGTQVTVSS”, for which the “polyreactivity (PSR sort gate)” value was “high polyreactivity”.
On to “QVQLVESGGGLVQAGGSLRLSCAASGSIFHWNAMGWYRQAPGKERELVAGITTSGGTTYYADSVKGRFTISRDNAKNTVYLQMNSLKPEDTAVYYCAARIIRWRPRWPSYGKYDYWGQGTQVTVSS”, for which the “polyreactivity (PSR sort gate)” value was “low polyreactivity”.
As for “QVQLVESVGGLVQAGGSLRLSCSASGTFRRNVKGWYRQAPGKERELVAAIRSGGSTYYADSVKGRFTISRDNAKHTVFLQMNSLKPEDTAVYYCASDRPGHSFYDEWYRYDSWGQGTQVTVSS”, the entry is “low polyreactivity”.
Regarding “QVQLVESGGGLVQAGGSLRLSCAASGGIFSAYAMGWSRQAPGKERELVAVINGSGSNTYYADSVKGRFTISRDNAKNTVYLQMNSLKPEDTAVYYCAARVYVSRSKRLNYWGQGTQVTVSS”, the “polyreactivity (PSR sort gate)” value is “high polyreactivity”.
The entry for “QVQLVESGGGLVQAGGSLRLSCAASGSTIGYNAMGWYRQAPGKERELVAAISGSGTDTRYADSVKGRFTISRDNAKNTFYLQMNSRNPEDTAVYYCAVSVVYRGSKRVRQNPMEYWGQGTQVTVSS” is “high polyreactivity”.
In the case of “QVQLVESGGGLVQAGGSLRLSCAASGLIFRPYAIGWYRQAPGKERELVAGITSGGNTDYADSVKGRFTISRDNAKNTVYLQMNSLKPEDTAVYYCADYFIYGYWGQGTQVTVSS”, the “polyreactivity (PSR sort gate)” value is listed as “low polyreactivity”.
“QVQLVESGGGLVQAGGSLRLSCAASGSIFYYNTMAWYRQAPGKERELVAAIRQRGTSTYYADSVKGRFTISRDNAKNTVYLLMISLKPEDTAVYYCAAVTRGQSAYSYDYWGQGTKVTVSS”: the “polyreactivity (PSR sort gate)” value is on record as “high polyreactivity”.
As for “QVQLVESGGGLVQAGGSLRLSCAASGSTFWVNAMGWYRQAPGKVRELVAAIRRGGSTKYADSVKGRFTISRDNAKNTFYLQINSLKPEDTAVSYCAADAPGHEYYYWGQGTQVTVSS”, the “polyreactivity (PSR sort gate)” value was “high polyreactivity”.
Regarding “QVQLVESGGGLVQAGGSLRLSCAPSGRIFSYNTVMGWYRQAPGKERELVAAITYSSASTYYADSVKGRFTISRDNAKNTVYLQMNSLKPEDTAVYYCAAVRYERGLWSDYWGQGTQVTVSS”, the “polyreactivity (PSR sort gate)” value is given as “high polyreactivity”.
As for “QVQLVESGGGVVQAGGSLGLSCAASGGIFAPYPMGWNRQAPGKERELAAAISSSDGSTYYADSVKGRFTISRDNAKNTVYLQMNSLKTEDTAVYYCAADYREDYGYWGQGTQVTVSS”, the entry is “low polyreactivity”.
As to “QVQLVESGAGIVQAGGSLRLSCAASGSTFGRYAMGLYTQAPGKERELVAAISASGGSTYYADSVKGRFTISRDNAKTTVYLQMNSLTPEDTAVYYCAKDRPQTRLWYYFIDDYDYRGQGTQVTVSS”, the “polyreactivity (PSR sort gate)” value is on record as “high polyreactivity”.
“QVQLVESGGGLVQAGGSLRLSCAASGFIFPFNAMGWYRQAPGKERELVAAITSGGSTYYADSVKGRFTISRDNAKNTVYLQMNSLKPEDTAVYYCAKSWDRIGIWYRLEYWGQGTQVTVSS”: the “polyreactivity (PSR sort gate)” value was “low polyreactivity”.
With “QVQLVESGGGLVQAGGSLRLSCAASGRIFGYYAMGWSRQAPGKEWELVAAISSGGRTYYADSVKGRFTISRDNAKNTVYLQMNSLKPEDTAVYYCAARSRVPPAGPRYDYWGLGTQVTVSS”, the “polyreactivity (PSR sort gate)” value is listed as “high polyreactivity”.
As for “QVQLVESGGGLVQAGGSLRLSCAASGITFKYYAMGWYRQAPGKESELVAAISRSGSSTYYADSVKGRFTISRDNAKNTVYLQINSLTPEDTAVYYCAADWKSKRTDKYDSWGQGTQVTVSS”, the entry is “high polyreactivity”; as for “QVQLVESVGGLVQAGGSLRLSCAASGFTFASNAMGWYRQAPGKERELVAAISRSGGSTFYADSVKGRFTISRDNAKNTVYLQMNSLKPEDTAVYYCAADIWRVYSTFYYWGQGTQVTVSS”, “low polyreactivity”.
In the case of “QVQLVESGGGLVQAGGSLRLSCAASGSIIWYYAMGWYRQAPGKERELVAAISISGSTYYADSVKGRFTISRDNAKNTVYLQMNSLKPEDTAVYYCAARKFFWRSNYDYWGQGTQVTVSS”, the “polyreactivity (PSR sort gate)” value is “low polyreactivity”.
As for “QVQLVESGGGLVQAGGSLRLSCAPSGRTLYGYAMGWYRQAPGKVSALVASFRSGGSTNYADSVKGRFTISLDNAKNTVYLQMNSLKPEDTAVYYCAADPYYSYGYYHAHGRDDGYWGQCTQVTVSS”, the entry is “low polyreactivity”; as for “QVQRVESGGGLGQAGGSLRLSCAASGIIFDYYAMGWYRQAPGNERELVAAITTSGGRTYYADSVKGRFTISRDNEKNTVYLQMNRLKPEDTAVYYCAASRPSPRPRDGYWGQGTQVTVSS”, “high polyreactivity”.
As for “QVQLVESGGGLVQAGGSLRLSCAASGRIFGRNAMGWYRQAPGKERELVAGISGRGGITYYADSVKGRFTISRDNAKNTVYLQMNSLKPEDTAVYYCAATGGDYYDFSYWGQGTQVTVSS”, the “polyreactivity (PSR sort gate)” value is “high polyreactivity”.
As for “QVQLQVSGGGLVQAGGNLRLSCAASGTISDSVGMGWYRQAPGKEREFVAGITLGGITNYADSVRGRFTISRDNGKNLYLQMKSLKPEETAVYYCAVDDYRYINYEFWGQGTQVTVSS”, the entry is “high polyreactivity”.
“QVQLVESGGGLVQAGGSLRLICAASGSIIAINVMGWYRQAPGKEREFVAAISVRSGSTYYADSVKGRFTISRDNAKNTVYLQMNSLKPEDTAVYYCAARTSRFWRGGGLDYWGQGTQVTVSS”: the “polyreactivity (PSR sort gate)” value is “high polyreactivity”.
As for “QVQLVESGRGLVQAGGSLRLSCAASGSTFPGNAMGWYRQAPGKERELVAAIRDRGTSTYYADSVKGRFTISRDNAKNTVYLQMNSLKPEDTAVYYCAAASSVAKGRWRLYDYWGQGTQVTVSS”, the “polyreactivity (PSR sort gate)” value is recorded as “high polyreactivity”.
Take “QVQLVESGGGLVQAGGSLRLSCAASGFIFGYYTMGWYRQAPGKERELVASITRGGSTNYADSVKGRFTISRDNAKYTVYLQMNSLNPEDTAVYYCAKRYAQTYSVSRYYYWGQGTQVTVSS”: the “polyreactivity (PSR sort gate)” value is “high polyreactivity”.
As for “QVQLVESGGGLVQAGGSLRLSCAASGFIFVYYVMGWYRQAPGKERELVAAITQSGGSTYYADSVKGRFTISRDNAKNTVYLQMNSLKPEDTAVYYCAAYRRTTGGGYDYWGQGTQVTVSS”, the “polyreactivity (PSR sort gate)” value was “high polyreactivity”.
As for “QVQLVESGGGLLQAGGSLRLSCAASGRTFYKNAMGWYRHAPRKERELVAAITSGGSTNYADSVKGRFTISRDNAKNSVYLQMNSLKSEDTAVSACAAQLFPYYRSRYSYINNYDYSGQGTQVTVSS”, the entry is “high polyreactivity”; as for “QVQLVESGGGLVQAGGSLRLSCAASGLTFKYYAMGWSRQAPGKESELVAAITSTGGRTYYADSVKGRFTISRDNAKNTVYLQMNSLKPEDTAVYYCAAYYVGSSKYDSWGQGTQVTVSS”, “low polyreactivity”; as for “QVQLVESGGGLVQAGVSLRLSCAASGRTFSSYAMGWYRQAPRKERELVPGISWRGGRTYYADSVKGRFTISRDNGKNSVYLQMNSLKREDTAVYYCNKVYRTYYGDYRFSGIPRYDYVGQGTQVTVSS”, “high polyreactivity”.
Take “QVQLEESGGGLVQAGGSLRLSCAASGFTFYRDTMGGYRQAPGKERELFAAITRDGSTYYADSVKGRFTISRDNAKYTVSLQLNSLKPEDTAVYYWNARGTVPWYGYDYWGQGTQVNVSS”: the “polyreactivity (PSR sort gate)” value is “high polyreactivity”.
For “QVQLVESGGGLVQAGGSLRLSCAASGFTFNKYAMGCYRQAPGKERELVAAISGSGGRTYYADSVKGRFTISRDNAKNTVYLQMNSLKPEDTAVYYCAAQRSVKVDYWGQGTQVTVSS”, the “polyreactivity (PSR sort gate)” value is on record as “high polyreactivity”.
Regarding “QVQLVESGGGLVQAGGSLRLSCAASGFISPGYAMGWYRQAPGKERELVAAISVNGGDTYYADSVKGRFTISRDNAKNTVYLQMYSLKPEDTAVYYCAAERGVDDSARYGDYDYWGQGTQVTVSS”, the “polyreactivity (PSR sort gate)” value is “low polyreactivity”.
